Results: US20140087995A1 (published 2014)
One block for each binder: values may come before it. Numbered stars: 1 amine (or outer) side, 2 acyl side, 3 side chain; on linkers, the order of the positions; unused ones are H or OH. Bridge positions count the residues as written; N and C are the ends. Side chains are listed from the residue outwards. Ends that are not written are not given here. * marks the point of attachment. C20 diacid = O=C(O)CCCCCCCCCCCCCCCCCCC(=O)*; γGlu = O=C(O)[C@H](CCC(=O)[*:2])N[*:1]; AEEA = NCCOCCOCC(=O)O

Tests used:
[1] = target: T1, human calcitonin receptor (human, UniProt P30988 25-474); test: cell-based or functional assay
T1 sequence (looked up): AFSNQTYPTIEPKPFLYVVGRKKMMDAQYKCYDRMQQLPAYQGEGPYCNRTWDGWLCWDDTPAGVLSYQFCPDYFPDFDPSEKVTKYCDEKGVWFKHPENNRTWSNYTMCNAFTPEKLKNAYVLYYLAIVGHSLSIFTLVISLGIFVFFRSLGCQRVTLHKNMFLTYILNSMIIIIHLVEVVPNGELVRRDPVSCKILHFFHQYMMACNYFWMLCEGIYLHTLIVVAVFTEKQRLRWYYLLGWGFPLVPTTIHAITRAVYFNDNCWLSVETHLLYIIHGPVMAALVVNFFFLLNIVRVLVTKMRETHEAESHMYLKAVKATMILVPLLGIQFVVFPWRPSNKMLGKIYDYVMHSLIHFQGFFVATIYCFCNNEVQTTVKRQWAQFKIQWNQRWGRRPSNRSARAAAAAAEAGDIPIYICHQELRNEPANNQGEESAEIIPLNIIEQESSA

[2] = target: T2, human calcitonin receptor (human, UniProt P30988 25-474); test: SPA competition against 125I-calcitonin, membranes of BHK cells with human calcitonin receptor (Assay VII)
T2 construct: whole, on cells; also called hCTR; hCT
T2 sequence (looked up): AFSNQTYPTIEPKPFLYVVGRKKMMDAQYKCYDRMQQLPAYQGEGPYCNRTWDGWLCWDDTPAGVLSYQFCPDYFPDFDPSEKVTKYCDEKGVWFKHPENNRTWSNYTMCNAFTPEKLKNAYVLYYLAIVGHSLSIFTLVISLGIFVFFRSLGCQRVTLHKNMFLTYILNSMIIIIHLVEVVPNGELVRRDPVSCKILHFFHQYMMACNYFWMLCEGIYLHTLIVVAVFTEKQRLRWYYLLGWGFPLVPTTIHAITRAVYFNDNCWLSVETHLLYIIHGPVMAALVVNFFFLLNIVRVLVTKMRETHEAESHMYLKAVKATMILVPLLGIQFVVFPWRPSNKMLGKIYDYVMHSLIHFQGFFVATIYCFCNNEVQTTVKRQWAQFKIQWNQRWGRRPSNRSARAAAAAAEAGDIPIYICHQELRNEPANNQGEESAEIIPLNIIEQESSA
Summary of the method: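 BHK hCTR membranes 35 ng/μL + SPA beads 0.05 mg/well; buffer 50 mM Hepes pH 7.4, 1 mM CaCl2, 5 mM MgCl₂, 0.1% OA, 0.02% Tween20. 120 min, 25° C., shaking. Scintillation count; IC50 by one-site binding competition.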

[3] = target: T2, human calcitonin receptor; test: ratio of IC50 at human calcitonin receptor to IC50 at human amylin receptor (SPA competition assays)
Summary of the method: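 Scintillation proximity competition binding on cell membranes at 35 ng/μL with SPA beads, in 50 mM Hepes pH 7.4, 1 mM CaCl2, 5 mM MgCl₂, 0.1% OA, 0.02% Tween20. Incubated 120 min at 25° C with shaking. IC₅₀ from one-site competition fit.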

B2: N^α1-[2-[2-[2-[[2-[2-[2-[[(4S)-4-carboxy-4-(19-carboxynonadecanoylamino)butanoyl]amino]ethoxy]ethoxy]acetyl]amino]ethoxy]ethoxy]acetyl]-[Glu14,Arg17,Pro21,Pro27 … (peptide)
peptide: {C20 diacid-γGlu-AEEA-AEEA}-KCNTATCATQRLAEFLRHSSPNFGAIPSSTNVGSNTP-NH2
modifications: disulfide 2-7
SMILES: CC[C@H](C)[C@H](NC(=O)[C@H](C)NC(=O)CNC(=O)[C@H](Cc1ccccc1)NC(=O)[C@H](CC(N)=O)NC(=O)[C@@H]1CCCN1C(=O)[C@H](CO)NC(=O)[C@H](CO)NC(=O)[C@H](Cc1c[nH]cn1)NC(=O)[C@H](CCCNC(=N)N)NC(=O)[C@H](CC(C)C)NC(=O)[C@H](Cc1ccccc1)NC(=O)[C@H](CCC(=O)O)NC(=O)[C@H](C)NC(=O)[C@H](CC(C)C)NC(=O)[C@H](CCCNC(=N)N)NC(=O)[C@H](CCC(N)=O)NC(=O)[C@@H](NC(=O)[C@H](C)NC(=O)[C@@H]1CSSC[C@H](NC(=O)[C@H](CCCCN)NC(=O)COCCOCCNC(=O)COCCOCCNC(=O)CC[C@H](NC(=O)CCCCCCCCCCCCCCCCCCC(=O)O)C(=O)O)C(=O)N[C@@H](CC(N)=O)C(=O)N[C@@H]([C@@H](C)O)C(=O)N[C@@H](C)C(=O)N[C@@H]([C@@H](C)O)C(=O)N1)[C@@H](C)O)C(=O)N1CCC[C@H]1C(=O)N[C@@H](CO)C(=O)N[C@@H](CO)C(=O)N[C@H](C(=O)N[C@@H](CC(N)=O)C(=O)N[C@H](C(=O)NCC(=O)N[C@@H](CO)C(=O)N[C@@H](CC(N)=O)C(=O)N[C@H](C(=O)N1CCC[C@H]1C(N)=O)[C@@H](C)O)C(C)C)[C@@H](C)O
notes: Synthetic acylated analogue of human amylin; also called compound 20
hCTR funct. EC50 (CRE luciferase reporter, BHK cells) [1]: 0.285 nM

B3: N^ε1-[(4S)-4-carboxy-4-[[(4S)-4-carboxy-4-(19-carboxynonadecanoylamino)butanoyl]amino]butanoyl]-[Asp14,Arg17,Pro21,Pro27,Pro34,Arg35]-h-amylin (peptide)
peptide: K([γGlu-γGlu-C20 diacid])CNTATCATQRLADFLRHSSPNFGAIPSSTNVGPRTY-NH2
modifications: disulfide 2-7; N-terminus assumed
SMILES: CC[C@H](C)[C@H](NC(=O)[C@H](C)NC(=O)CNC(=O)[C@H](Cc1ccccc1)NC(=O)[C@H](CC(N)=O)NC(=O)[C@@H]1CCCN1C(=O)[C@H](CO)NC(=O)[C@H](CO)NC(=O)[C@H](Cc1c[nH]cn1)NC(=O)[C@H](CCCNC(=N)N)NC(=O)[C@H](CC(C)C)NC(=O)[C@H](Cc1ccccc1)NC(=O)[C@H](CC(=O)O)NC(=O)[C@H](C)NC(=O)[C@H](CC(C)C)NC(=O)[C@H](CCCNC(=N)N)NC(=O)[C@H](CCC(N)=O)NC(=O)[C@@H](NC(=O)[C@H](C)NC(=O)[C@@H]1CSSC[C@H](NC(=O)[C@@H](N)CCCCNC(=O)CC[C@H](NC(=O)CC[C@H](NC(=O)CCCCCCCCCCCCCCCCCCC(=O)O)C(=O)O)C(=O)O)C(=O)N[C@@H](CC(N)=O)C(=O)N[C@@H]([C@@H](C)O)C(=O)N[C@@H](C)C(=O)N[C@@H]([C@@H](C)O)C(=O)N1)[C@@H](C)O)C(=O)N1CCC[C@H]1C(=O)N[C@@H](CO)C(=O)N[C@@H](CO)C(=O)N[C@H](C(=O)N[C@@H](CC(N)=O)C(=O)N[C@H](C(=O)NCC(=O)N1CCC[C@H]1C(=O)N[C@@H](CCCNC(=N)N)C(=O)N[C@H](C(=O)N[C@@H](Cc1ccc(O)cc1)C(N)=O)[C@@H](C)O)C(C)C)[C@@H](C)O
notes: also called compound 130
IC50 [2]: 127 nM
Ratio hCT/hAmylin binding [3]: 280

Binder: K([γGlu-γGlu-C20 diacid])CNTATCATQRLADFLRHSSPNFGAIPSSTNVGPETY-NH2 (disulfide 2-7)
IC50 [2]: 8.56 nM
Ratio hCT/hAmylin binding [3]: 49.8

B5: N^ε1-[(4S)-4-carboxy-4-[[(4S)-4-carboxy-4-(19-carboxynonadecanoylamino)butanoyl]amino]butanoyl]-[Ser14,Arg17,Pro21,Pro27,Pro34,Glu35]-h-amylin (peptide)
peptide: K([γGlu-γGlu-C20 diacid])CNTATCATQRLASFLRHSSPNFGAIPSSTNVGPETY-NH2
modifications: disulfide 2-7; N-terminus assumed
SMILES: CC[C@H](C)[C@H](NC(=O)[C@H](C)NC(=O)CNC(=O)[C@H](Cc1ccccc1)NC(=O)[C@H](CC(N)=O)NC(=O)[C@@H]1CCCN1C(=O)[C@H](CO)NC(=O)[C@H](CO)NC(=O)[C@H](Cc1c[nH]cn1)NC(=O)[C@H](CCCNC(=N)N)NC(=O)[C@H](CC(C)C)NC(=O)[C@H](Cc1ccccc1)NC(=O)[C@H](CO)NC(=O)[C@H](C)NC(=O)[C@H](CC(C)C)NC(=O)[C@H](CCCNC(=N)N)NC(=O)[C@H](CCC(N)=O)NC(=O)[C@@H](NC(=O)[C@H](C)NC(=O)[C@@H]1CSSC[C@H](NC(=O)[C@@H](N)CCCCNC(=O)CC[C@H](NC(=O)CC[C@H](NC(=O)CCCCCCCCCCCCCCCCCCC(=O)O)C(=O)O)C(=O)O)C(=O)N[C@@H](CC(N)=O)C(=O)N[C@@H]([C@@H](C)O)C(=O)N[C@@H](C)C(=O)N[C@@H]([C@@H](C)O)C(=O)N1)[C@@H](C)O)C(=O)N1CCC[C@H]1C(=O)N[C@@H](CO)C(=O)N[C@@H](CO)C(=O)N[C@H](C(=O)N[C@@H](CC(N)=O)C(=O)N[C@H](C(=O)NCC(=O)N1CCC[C@H]1C(=O)N[C@@H](CCC(=O)O)C(=O)N[C@H](C(=O)N[C@@H](Cc1ccc(O)cc1)C(N)=O)[C@@H](C)O)C(C)C)[C@@H](C)O
notes: also called compound 120
IC50 [2]: 3.44 nM
Ratio hCT/hAmylin binding [3]: 45.3

Results, then the binder that gave them:

hCTR funct. EC50 (CRE luciferase reporter, BHK cells) [1]: 0.07 nM
B1: N^α1-[(4S)-4-carboxy-4-(19-carboxynonadecanoylamino)butanoyl]-[Glu14,Arg17,Pro21,Pro25,Pro28,Pro29,Pro37]-h-amylin (peptide)
peptide: {C20 diacid-γGlu}-KCNTATCATQRLAEFLRHSSPNFGPILPPTNVGSNTP-NH2
modifications: disulfide 2-7
SMILES: CC[C@H](C)[C@H](NC(=O)[C@@H]1CCCN1C(=O)CNC(=O)[C@H](Cc1ccccc1)NC(=O)[C@H](CC(N)=O)NC(=O)[C@@H]1CCCN1C(=O)[C@H](CO)NC(=O)[C@H](CO)NC(=O)[C@H](Cc1c[nH]cn1)NC(=O)[C@H](CCCNC(=N)N)NC(=O)[C@H](CC(C)C)NC(=O)[C@H](Cc1ccccc1)NC(=O)[C@H](CCC(=O)O)NC(=O)[C@H](C)NC(=O)[C@H](CC(C)C)NC(=O)[C@H](CCCNC(=N)N)NC(=O)[C@H](CCC(N)=O)NC(=O)[C@@H](NC(=O)[C@H](C)NC(=O)[C@@H]1CSSC[C@H](NC(=O)[C@H](CCCCN)NC(=O)CC[C@H](NC(=O)CCCCCCCCCCCCCCCCCCC(=O)O)C(=O)O)C(=O)N[C@@H](CC(N)=O)C(=O)N[C@@H]([C@@H](C)O)C(=O)N[C@@H](C)C(=O)N[C@@H]([C@@H](C)O)C(=O)N1)[C@@H](C)O)C(=O)N[C@@H](CC(C)C)C(=O)N1CCC[C@H]1C(=O)N1CCC[C@H]1C(=O)N[C@H](C(=O)N[C@@H](CC(N)=O)C(=O)N[C@H](C(=O)NCC(=O)N[C@@H](CO)C(=O)N[C@@H](CC(N)=O)C(=O)N[C@H](C(=O)N1CCC[C@H]1C(N)=O)[C@@H](C)O)C(C)C)[C@@H](C)O
notes: Synthetic acylated analogue of human amylin; also called compound 4

IC50 [2]: 10.3 nM
Ratio hCT/hAmylin binding [3]: 27.3
Binder: K([γGlu-γGlu-C20 diacid])CNTATCATQRLAEFLRHSSPNFGAIPSSTNVGPHTY-NH2 (disulfide 2-7 (inferred))

IC50 [2]: 2.73 nM
Ratio hCT/hAmylin binding [3]: 18
B4: N^ε1-[(4S)-4-carboxy-4-[[(4S)-4-carboxy-4-(19-carboxynonadecanoylamino)butanoyl]amino]butanoyl]-[Glu14,Arg17,Pro21,Pro27,Pro34,Phe37]-h-amylin (peptide)
peptide: K([γGlu-γGlu-C20 diacid])CNTATCATQRLAEFLRHSSPNFGAIPSSTNVGPNTF-NH2
modifications: disulfide 2-7; N-terminus assumed
SMILES: CC[C@H](C)[C@H](NC(=O)[C@H](C)NC(=O)CNC(=O)[C@H](Cc1ccccc1)NC(=O)[C@H](CC(N)=O)NC(=O)[C@@H]1CCCN1C(=O)[C@H](CO)NC(=O)[C@H](CO)NC(=O)[C@H](Cc1c[nH]cn1)NC(=O)[C@H](CCCNC(=N)N)NC(=O)[C@H](CC(C)C)NC(=O)[C@H](Cc1ccccc1)NC(=O)[C@H](CCC(=O)O)NC(=O)[C@H](C)NC(=O)[C@H](CC(C)C)NC(=O)[C@H](CCCNC(=N)N)NC(=O)[C@H](CCC(N)=O)NC(=O)[C@@H](NC(=O)[C@H](C)NC(=O)[C@@H]1CSSC[C@H](NC(=O)[C@@H](N)CCCCNC(=O)CC[C@H](NC(=O)CC[C@H](NC(=O)CCCCCCCCCCCCCCCCCCC(=O)O)C(=O)O)C(=O)O)C(=O)N[C@@H](CC(N)=O)C(=O)N[C@@H]([C@@H](C)O)C(=O)N[C@@H](C)C(=O)N[C@@H]([C@@H](C)O)C(=O)N1)[C@@H](C)O)C(=O)N1CCC[C@H]1C(=O)N[C@@H](CO)C(=O)N[C@@H](CO)C(=O)N[C@H](C(=O)N[C@@H](CC(N)=O)C(=O)N[C@H](C(=O)NCC(=O)N1CCC[C@H]1C(=O)N[C@@H](CC(N)=O)C(=O)N[C@H](C(=O)N[C@@H](Cc1ccccc1)C(N)=O)[C@@H](C)O)C(C)C)[C@@H](C)O

IC50 [2]: 1.56 nM
Ratio hCT/hAmylin binding [3]: 22.6
Binder: K([γGlu-γGlu-C20 diacid])CNTATCATQRLAEFLRHSSPNFGAILSSTPVGPETY-NH2 (disulfide 2-7 (inferred))
